# T1: TRIP4 (UniProt Q15650 1-581)
# T1 sequence: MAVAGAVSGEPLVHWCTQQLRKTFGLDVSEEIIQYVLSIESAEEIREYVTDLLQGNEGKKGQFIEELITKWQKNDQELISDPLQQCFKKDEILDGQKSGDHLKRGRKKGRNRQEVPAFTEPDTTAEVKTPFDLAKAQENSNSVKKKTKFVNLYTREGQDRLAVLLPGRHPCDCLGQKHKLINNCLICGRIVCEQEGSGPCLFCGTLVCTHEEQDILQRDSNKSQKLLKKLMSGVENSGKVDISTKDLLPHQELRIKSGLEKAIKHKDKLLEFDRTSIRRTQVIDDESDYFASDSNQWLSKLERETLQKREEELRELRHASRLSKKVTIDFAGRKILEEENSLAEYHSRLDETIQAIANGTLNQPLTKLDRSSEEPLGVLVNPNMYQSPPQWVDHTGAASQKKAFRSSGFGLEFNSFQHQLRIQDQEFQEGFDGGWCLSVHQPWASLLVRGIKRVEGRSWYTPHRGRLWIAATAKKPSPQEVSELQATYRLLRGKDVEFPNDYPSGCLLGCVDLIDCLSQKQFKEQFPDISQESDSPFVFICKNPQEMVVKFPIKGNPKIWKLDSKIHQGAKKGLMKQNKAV
# What was measured:
# [1] = target: T2, ASCC3 helicase region (ASCC3^HR, residues 401-2202) (human, UniProt Q8N3C0 401-2202); test: SEC; analytical SEC for competitive binding, Superdex 200 3.2/300; 120 pmol ASCC3^HR with 360 pmol TRIP4 and/or ALKBH3 in 100 µl, 30 min on ice; fractions by SDS-PAGE, Coomassie; details: both partners purified
# T2 construct: source: High Five cells via recombinant baculovirus, purified (Ni-NTA, TEV, heparin, SEC); also co-produced with TRIP4 in High Five cells; not shown: His10, N-terminal, cleaved
# [2] = target: T2, ASCC3 helicase region (ASCC3^HR, …); test: SEC; analytical SEC, Superdex 200 3.2/300; 20 mM HEPES-NaOH pH 7.5, 250 mM NaCl, 5% glycerol, 1 mM DTT; 100 pmol ASCC3^HR mixed with other proteins in two to tenfold molar excess in 80 µl, 30 min on ice; fractions by SDS-PAGE; details: both partners purified
# ASCC3HR = ASCC3HR (human, UniProt Q8N3C0 401-2202); test: MST; no ATP; Hill fit EC50; MST: 20 mM HEPES-NaOH pH 7.5, 300 mM NaCl, 5% glycerol, 1 mM DTT, room temperature, 50 nM final Cy5-T48; UV cross-linking: 50 mM HEPES-NaOH pH 7.5, 80 mM NaCl; details: protein: recombinant; tags: N-terminal His10, TEV-cleaved; label: 5'-Cy5; single strand
# TRIP4 = target: T1, TRIP4; test: as above; details: protein: recombinant; tags: N-terminal His6, TEV-cleaved; label: 5'-Cy5; single strand
# ASCC3HR;TRIP4 = ASCC3HR;TRIP4 (human;human?, UniProt Q8N3C0;Q15650 401-2202;1-581, |); test: as above; details: protein: recombinant;recombinant; tags: N-terminal His10, TEV-cleaved;N-terminal His6, TEV-cleaved; copies: 1;1; label: 5'-Cy5; single strand
# ASCC3HR;TRIP4 1-230 = ASCC3HR;TRIP4 1-230 (human;human?, UniProt Q8N3C0;Q15650 401-2202;1-230, |); test: as above; details: protein: recombinant;recombinant; tags: N-terminal His10, TEV-cleaved;N-terminal His6, TEV-cleaved; copies: 1;1; label: 5'-Cy5; single strand
# [3] = target: T2, ASCC3 helicase region (ASCC3^HR, …); test: cell-based or functional assay
# T2 sequence (Q8N3C0 401-2202): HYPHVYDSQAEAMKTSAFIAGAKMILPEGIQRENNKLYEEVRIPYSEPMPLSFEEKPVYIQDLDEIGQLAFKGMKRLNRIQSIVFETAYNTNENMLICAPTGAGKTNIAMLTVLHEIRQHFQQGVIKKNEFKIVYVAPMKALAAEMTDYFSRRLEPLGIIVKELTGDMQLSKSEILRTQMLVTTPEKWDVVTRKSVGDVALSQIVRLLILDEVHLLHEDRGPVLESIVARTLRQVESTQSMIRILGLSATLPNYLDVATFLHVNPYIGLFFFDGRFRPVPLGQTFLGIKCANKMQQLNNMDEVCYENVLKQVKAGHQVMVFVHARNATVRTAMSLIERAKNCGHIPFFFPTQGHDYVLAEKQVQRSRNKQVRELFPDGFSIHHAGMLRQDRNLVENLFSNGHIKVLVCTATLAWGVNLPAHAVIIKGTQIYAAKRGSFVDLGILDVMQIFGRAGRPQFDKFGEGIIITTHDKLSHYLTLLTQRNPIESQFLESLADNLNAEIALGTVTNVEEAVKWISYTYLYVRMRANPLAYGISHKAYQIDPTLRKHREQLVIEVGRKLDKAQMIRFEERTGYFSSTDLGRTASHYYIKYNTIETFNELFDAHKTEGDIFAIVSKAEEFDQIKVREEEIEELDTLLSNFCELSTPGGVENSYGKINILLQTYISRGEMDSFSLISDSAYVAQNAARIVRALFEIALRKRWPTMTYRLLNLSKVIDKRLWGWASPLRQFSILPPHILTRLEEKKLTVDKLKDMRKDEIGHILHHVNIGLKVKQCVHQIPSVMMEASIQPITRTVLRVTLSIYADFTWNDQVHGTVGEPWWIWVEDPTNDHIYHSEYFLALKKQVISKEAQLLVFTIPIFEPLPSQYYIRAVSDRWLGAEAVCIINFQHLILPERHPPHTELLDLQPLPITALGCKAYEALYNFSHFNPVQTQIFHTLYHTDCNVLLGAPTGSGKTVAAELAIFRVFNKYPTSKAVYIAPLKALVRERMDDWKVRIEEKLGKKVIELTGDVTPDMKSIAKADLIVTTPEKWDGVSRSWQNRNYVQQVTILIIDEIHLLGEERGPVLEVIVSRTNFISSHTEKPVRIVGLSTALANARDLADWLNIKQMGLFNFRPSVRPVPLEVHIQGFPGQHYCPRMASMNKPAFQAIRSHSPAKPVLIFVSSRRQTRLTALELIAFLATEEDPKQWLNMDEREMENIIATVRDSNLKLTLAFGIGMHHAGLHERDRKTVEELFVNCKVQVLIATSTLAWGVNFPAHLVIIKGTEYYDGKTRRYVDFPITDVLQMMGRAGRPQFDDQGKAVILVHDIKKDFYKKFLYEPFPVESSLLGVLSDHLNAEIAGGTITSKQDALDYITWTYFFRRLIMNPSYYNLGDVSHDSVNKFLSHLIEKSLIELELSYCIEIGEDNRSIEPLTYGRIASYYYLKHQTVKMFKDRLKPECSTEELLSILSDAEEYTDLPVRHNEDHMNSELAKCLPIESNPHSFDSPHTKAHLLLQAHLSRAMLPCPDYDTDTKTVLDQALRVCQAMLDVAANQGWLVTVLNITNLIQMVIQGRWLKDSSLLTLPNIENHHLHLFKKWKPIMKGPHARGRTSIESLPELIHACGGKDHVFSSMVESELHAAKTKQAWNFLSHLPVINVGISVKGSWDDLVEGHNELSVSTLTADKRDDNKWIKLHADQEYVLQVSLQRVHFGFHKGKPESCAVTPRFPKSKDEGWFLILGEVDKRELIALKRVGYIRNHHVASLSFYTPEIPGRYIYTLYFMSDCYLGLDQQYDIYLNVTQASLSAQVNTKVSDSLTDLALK
# Sequence of ASCC3HR;TRIP4 1-230 (Q8N3C0 401-2202, one chain of several): as the sequence (Q8N3C0 401-2202) above
# Sequence of ASCC3HR (Q8N3C0 401-2202): as above
# Sequence of ASCC3HR;TRIP4 (Q8N3C0 401-2202, one chain of several): as the sequence (Q8N3C0 401-2202) above
binder,measurement,setting,value
"ALKBH3 (alpha-ketoglutarate/iron-dependent dioxygenase, DNA/RNA dealkylase), full length (enzyme, human, UniProt Q96Q83 1-286, looked up, ALKBH3, human, full length, amplified from a cDNA library of human HeLa cells, pETM-11; source: E. coli C2566, purified (Ni-NTA, TEV, heparin, SEC); not shown: His6, N-terminal, cleaved) MEEKRRRARVQGAWAAPVKSQAIAQPATTAKSHLHQKPGQTWKNKEHHLSDREFVFKEPQQVVRRAPEPRVIDREGVYEISLSPTGVSRVCLYPGFVDVKEADWILEQLCQDVPWKQRTGIREDITYQQPRLTAWYGELPYTYSRITMEPNPHWHPVLRTLKNRIEENTGHTFNSLLCNLYRNEKDSVDWHSDDEPSLGRCPIIASLSFGATRTFEMRKKPPPEENGDYTYVERVKIPLDHGTLLIMEGATQADWQHRVPKEYHSREPRVNLTFRTVYPDPRGAPW",binding result,[1],binds
"TRIP4^152-230 (domain or fragment, human, UniProt Q15650 152-230, looked up, TRIP4, human, residues 152-230 (ZnF domain); also called ZnF domain alone; source: E. coli BL21 (DE3), purified (Ni-NTA, TEV, SEC); not shown: His6, N-terminal, cleaved) LYTREGQDRLAVLLPGRHPCDCLGQKHKLINNCLICGRIVCEQEGSGPCLFCGTLVCTHEEQDILQRDSNKSQKLLKKL",binding result,[2],binds
TTTTTTTTTTTTTTTTTTTTTTTTTTTTTTTTTTTTTTTTTTTTTTTT (ssDNA) [T48 (Cy5)],apparent K (half saturation),ASCC3HR,551 ± 194 nM
same,apparent K (half saturation),TRIP4,903 ± 24 nM
same,apparent K (half saturation),ASCC3HR;TRIP4,53 ± 3 nM
same,apparent K (half saturation),ASCC3HR;TRIP4 1-230,468 ± 63 nM
"TRIP4^152-581 (domain or fragment, human, UniProt Q15650 152-581, looked up, source: E. coli BL21 (DE3), purified (Ni-NTA, TEV, heparin, SEC); not shown: His6, N-terminal, cleaved) LYTREGQDRLAVLLPGRHPCDCLGQKHKLINNCLICGRIVCEQEGSGPCLFCGTLVCTHEEQDILQRDSNKSQKLLKKLMSGVENSGKVDISTKDLLPHQELRIKSGLEKAIKHKDKLLEFDRTSIRRTQVIDDESDYFASDSNQWLSKLERETLQKREEELRELRHASRLSKKVTIDFAGRKILEEENSLAEYHSRLDETIQAIANGTLNQPLTKLDRSSEEPLGVLVNPNMYQSPPQWVDHTGAASQKKAFRSSGFGLEFNSFQHQLRIQDQEFQEGFDGGWCLSVHQPWASLLVRGIKRVEGRSWYTPHRGRLWIAATAKKPSPQEVSELQATYRLLRGKDVEFPNDYPSGCLLGCVDLIDCLSQKQFKEQFPDISQESDSPFVFICKNPQEMVVKFPIKGNPKIWKLDSKIHQGAKKGLMKQNKAV",binding result,[2],binds
"TRIP4, full length, co-produced with ASCC3^HR in insect cells (natural protein, human, UniProt Q15650 1-581, looked up) MAVAGAVSGEPLVHWCTQQLRKTFGLDVSEEIIQYVLSIESAEEIREYVTDLLQGNEGKKGQFIEELITKWQKNDQELISDPLQQCFKKDEILDGQKSGDHLKRGRKKGRNRQEVPAFTEPDTTAEVKTPFDLAKAQENSNSVKKKTKFVNLYTREGQDRLAVLLPGRHPCDCLGQKHKLINNCLICGRIVCEQEGSGPCLFCGTLVCTHEEQDILQRDSNKSQKLLKKLMSGVENSGKVDISTKDLLPHQELRIKSGLEKAIKHKDKLLEFDRTSIRRTQVIDDESDYFASDSNQWLSKLERETLQKREEELRELRHASRLSKKVTIDFAGRKILEEENSLAEYHSRLDETIQAIANGTLNQPLTKLDRSSEEPLGVLVNPNMYQSPPQWVDHTGAASQKKAFRSSGFGLEFNSFQHQLRIQDQEFQEGFDGGWCLSVHQPWASLLVRGIKRVEGRSWYTPHRGRLWIAATAKKPSPQEVSELQATYRLLRGKDVEFPNDYPSGCLLGCVDLIDCLSQKQFKEQFPDISQESDSPFVFICKNPQEMVVKFPIKGNPKIWKLDSKIHQGAKKGLMKQNKAV","amplitude-weighted DNA unwinding rate constant (kuaw) of ASCC3^HR with TRIP4, stopped-flow fluorescence, no trap (ASCC3^HR alone 0.024 s^-1; stimulated 2.3-fold)",[3],0.054 s⁻¹

# Source: article PMC10076317, “Extended DNA threading through a dual-engine motor module of the activating signal co-integrator 1 complex” (Nature Communications, 2023)
